Biological target: enterokinase

B1: protein of the present invention having an amino acid sequence shown in SEQ ID NO:1 (protein)
chain: YDPEAASAPGSGNPCHEASAAQKENAGEDPGLARQAPKPRKQRSSLLEKGLDGAKKAVGGLGKLGKDAVEDLESVGKGAVHDVKDVLDSVL
With B1 the “amidolytic activity against the fluorescent peptide substrate for trypsin (increase in fluorescence intensity)” value was “a minimal proteolytic activity exhibited by enterokinase alone was significantly enhanced by the protein of the present invention immunoprecipitated from JAR cells”.

Reference: patent publication US20100144027
